In article PMC9905677:

Assays:
[1] = target: soluble form of human FcγRIIIb (NA2 form) composed of the extracellular domains (human) (UniProt O75015); assay: NMR titration; 1H-15N HSQC peak intensity attenuation of the 15N-labeled protein (rituximab-Fc 120 μM, rituximab-Fab 240 μM, sFcγRIIIb 120 μM) on adding serum polyclonal IgG 120 μM, its Fab 240 μM or HSA 600 μM; 5 mM sodium phosphate, 50 mM NaCl, pH 7.4, 37°C
[2] = target: rituximab-Fab (human); assay: as above
[3] = target: extracellular region of human FcγRIIIa (158V allele), bis-glycosylated (human) (UniProt P08637)

UniProt O75015, sequence (O75015 17-200): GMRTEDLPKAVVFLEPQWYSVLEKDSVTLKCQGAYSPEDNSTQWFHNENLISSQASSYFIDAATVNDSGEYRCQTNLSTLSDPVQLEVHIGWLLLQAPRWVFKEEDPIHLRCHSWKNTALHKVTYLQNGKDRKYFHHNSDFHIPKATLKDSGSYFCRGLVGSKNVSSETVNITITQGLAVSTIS

| Substance | average level of HSQC peak intensity attenuation (Io-Ip)/Io [1] | average level of HSQC peak intensity attenuation (Io-Ip)/Io [2] | EC50 of the ADCC reporter assay (Jurkat/FcγRIIIa/NFAT-Luc effector cells, luciferase) [3] |
| --- | --- | --- | --- |
| human serum albumin (from UniProt P02768 25-609) (natural protein) | 0.41 | 0.6 |  |
| rituximab (antibody) |  |  | 0.02 µg/mL |
